The record followed here is US20250215095.

The target of data set [1] is T1, internally quenched peptide probe with CM LSGRSPAGL (SEQ ID NO: 694).
T1 chain: SLSGRSPAGLGKR

In data set [2] the target is T2, internally quenched peptide probe with CM PWGLAGRS (SEQ ID NO: 690).
T2 chain: SPWGLAGRSGKR

In data set [3] the target is T3, internally quenched peptide probe with CM PWGLSGRA (SEQ ID NO: 693).
T3 chain: SPWGLSGRAGKR

For data set [4], the target named is T4, internally quenched peptide probe with CM PWALSGRS (SEQ ID NO: 688).
T4 chain: SPWALSGRSGKR

Data set [5] has as its target T5, internally quenched peptide probe with CM PWGLSGR (SEQ ID NO: 163).
T5 chain: SPWGLSGRGSKR

Data set [6] has as its target T6, internally quenched peptide probe with CM PAGLSGRS (SEQ ID NO: 687).
T6 chain: SPAGLSGRSGKR

The target in data set [7] is internally quenched peptide probe with CM PWGLRS (SEQ ID NO: 48).
Data set [8] concerns the target T7, internally quenched peptide probe with CM LSGKSPWGL (SEQ ID NO: 178).
T7 chain: SLSGKSPWGLGKR

Data set [9] concerns the target T8, internally quenched peptide probe with CM PWGLSGRS (SEQ ID NO: 12).
T8 chain: SPWGLSGRSGKR

The target of data set [10] is T9, internally quenched peptide probe with CM AWGLSGRS (SEQ ID NO: 686).
T9 chain: SAWGLSGRSGKR

The target of data set [11] is internally quenched peptide probe with CM RSPWGL (SEQ ID NO: 90).
Data set [12] addresses T10, internally quenched peptide probe with CM PWGLSGAS (SEQ ID NO: 692).
T10 chain: SPWGLSGASGKR

Data set [13] has as its target T11, internally quenched peptide probe with CM PWGLSARS (SEQ ID NO: 691).
T11 chain: SPWGLSARSGKR

Data set [14] has as its target T12, internally quenched peptide probe with CM WGLSGRS (SEQ ID NO: 685).
T12 chain: GSWGLSGRSGKR

For data set [15], the target named is T13, internally quenched peptide probe with CM LSGRSPWGL (SEQ ID NO: 177).
T13 chain: SLSGRSPWGLGKR

For data set [16], the target named is T14, internally quenched peptide probe with CM PWGLSG (SEQ ID NO: 684).
T14 chain: SPWGLSGGGSKR

For data set [17], the target named is T15, internally quenched peptide probe with CM PWGASGRS (SEQ ID NO: 689).
T15 chain: SPWGASGRSGKR

The target in data set [18] is T16, internally quenched peptide probe with CM PWGLSGKS (SEQ ID NO: 150).
T16 chain: SPWGLSGKSGKR

B1: matrix metalloprotease 2 (MMP2) (protein)
chain: YNFFPRKPKWDKNQITYRIIGYTPDLDPETVDDAFARAFQVWSDVTPLRFSRIHDGEADIMINFGRWEHGDGYPFDGKDGLLAHAFAPGTGVGGDSHFDDDELWTLGEGQVVRVKYGNADGEYCKFPFLFNGKEYNSCTDTGRSDGFLWCSTTYNFEKDGKYGFCPHEALFTMGGNAEGQPCKFPFRFQGTSYDSCTTEGRTDGYRWCGTTEDYDRDKKYGFCPETAMSTVGGNSEGAPCVFPFTFLGNKYESCTSAGRSDGKMWCATTANYDDDRKWGFCPDQGYSLFLVAAHEFGHAMGLEHSQDPGALMAPIYTYTKNFRLSQDDIKGIQELYGASPDIDLGTGPTPTLGPVTPEICKQDIVFDGIAQIRGEIFFFKDRFIWRTVTPRDKPMGPLLVATFWPELPEKIDAVYEAPQEEKAVFFAGNEYWIYSASTLERGYPKPLTSLGLPPDVQRVDAAFNWSKNKKTYIFAGDKFWRYNEVKKKMDPGFPKLIADAWNAIPDNLDAVVDLQGGGHSYFFKGAYYLKLENQSLKSVKFGSIKSDWLGC
Consider B1, for which the Probe Cleavage (pM/s) was 2080 pM/s in [1]; 4870 pM/s in [2]; 6100 pM/s in data set [3]; 4890 pM/s in [4]; 6540 pM/s in data set [5]; “Above the limit of quantification” in data set [6]. Also, the Probe Cleavage (pM/s) in data set [7] was 3800 pM/s; in data set [8], 37.1 pM/s; in data set [9], 2920 pM/s; in data set [10] it was 816 pM/s; in data set [11], 11700 pM/s; in data set [12] it was 4370 pM/s. For the same protein, the Probe Cleavage (pM/s) in [13] was 9580 pM/s; in data set [14], 66.4 pM/s; in data set [15], 48.9 pM/s; in data set [16], 3100 pM/s; in data set [17], 202 pM/s; in data set [18] it was 1620 pM/s. Further, the Probe Cleavage (kcat/KM (M^-1 s^-1)) in [7] amounted to 140000 M⁻¹ s⁻¹; in data set [9], 78000 M⁻¹ s⁻¹; in data set [11], 260000 M⁻¹ s⁻¹; in data set [18], 59000 M⁻¹ s⁻¹.

B2: membrane type serine protease 1 (MT-SP1) (protein)
chain: VVGGTDADEGEWPWQVSLHALGQGHICGASLISPNWLVSAAHCYIDDRGFRYSDPTQWTAFLGLHDQSQRSAPGVQERRLKRIISHPFFNDFTFDYDIALLELEKPAEYSSMVRPICLPDASHVFPAGKAIWVTGWGHTQYGGTGALILQKGEIRVINQTTCENLLPQQITPRMMCVGFLSGGVDSCQGDSGGPLSSVEADGRIFQAGVVSWGDGCAQRNKPGVYTRLPLFRDWIKENTGV
For B2, the Probe Cleavage (pM/s) turned out to be 1520 pM/s in data set [1]; 15800 pM/s in data set [2]; 7620 pM/s in data set [3]; 15300 pM/s in data set [4]; 1290 pM/s in data set [5]; 16500 pM/s in data set [6]. Further, the Probe Cleavage (pM/s) in data set [7] worked out at 1230 pM/s; in data set [8], 595 pM/s; in [9], 7810 pM/s; in data set [10] it was 17000 pM/s; in [11], 2390 pM/s; in data set [12], 13 pM/s. For the same protein, the Probe Cleavage (pM/s) came to 13100 pM/s in data set [13]; 10600 pM/s in data set [14]; 812 pM/s in data set [15]; 5.1 pM/s in data set [16]; 18000 pM/s in [17]; 2330 pM/s in [18]. Moreover, the Probe Cleavage (kcat/KM (M^-1 s^-1)) in data set [7] came to 31000 M⁻¹ s⁻¹; in data set [9], 150000 M⁻¹ s⁻¹; in data set [11] it was 48000 M⁻¹ s⁻¹; in [18], 80000 M⁻¹ s⁻¹.
